Measurements reported in patent publication US20150203556A1 (UAB RESEARCH FOUNDATION, published 2015).

B1: IL-20 (ligand)
chain: MLKTLNLGSCVIATNLQEIRNGFSEIRGSVQAKDGNIDIRILRRTESLQDTKPANRCCLLRHLLRLYLDRVFKNYQTPDHYTLRKISSLANSFLTIKKDLRLCHAHMTCHCGEEAMKKYSQILSHFEKLEPQAAVVKALGELDILLQWMEETE
notes: The crystal model holds residues 24-176; also called Interleukin-20; IL-20b
B2: IL22R1ddq/IL20R2-FCkh (Fc fusion)
chain 1: AHAPEDPSDLLQHVKFQSSNFENILTWDSGPEGTPDTVYSIEYKTYGERDWVAKKGCQRITRKSCDLTVETGDLQELYYARVTAVSAGGRSATKMTDRFSSLQHTTLKPPDVTCISKVRSIQMIVHPTPTPIRAGDGHRLTLEDIFHDLFYHLELQVNRTYQMHLGGKQREYEFFGLTPDTEFLGTIMICVPTWAKESAPYMCRVKTLPDRTWTYSGSGGGGPSVFIFPPKIKDVLMISLSPIVTCVVVDVSEDDPDVQISWFVNNVEVHTAQTQTHREDYNSTLRVVSALPIQHQDWMSGKEFKCKVNNKDLPAPIERTISKPKGSVRAPQVYVLPPPCEEMTKKQVTLYCMVTDFMPEDIYVEWTNNGKTELNYKNTEPVLDSDGSYFMYSKLRVEKKNWVERNSYSCSVVHEGLHNHHTTKSFSRTPGKGLEASGGLNDIFEAQKIEWHEGTGHHHHHH
chain 2: DEVAILPAPQQLSVLSTNMKHLLMWSPVIAPGETVYYSVEYQGEYESLYTSHIWIPSSWCSLTEGPECDVTDDITATVPYNLRVRATLGSQTSAWSILKHPFNRQSTILTRPGMEITKDGFHLVIELEDLGPQFEFLVAYWRREPGAEEHVKMVRSGGIPVHLETMEPGAAYCVKAQTFVKAIGRYSAFSQTECVEVQGEAGSGGGGPSVFIFPPKIKDVLMISLSPIVTCVVVDVSEDDPDVQISWFVNNVEVHTAQTQTHREDYNSTLRVVSALPIQHQDWMSGKEFKCKVNNKDLPAPIERTISKPKGSVRAPQVYVLPPPEEEMTKKQVTLTCMVTDFMPEDIYVEWTNNGKTELNYKNTEPVLDSDGSYFMTSKLRVEKKNWVERNSYSCSVVHEGLHNHHTTKSFGGCGTPASGGLNDIFEAQKIEWHE
notes: also called IL-22R1/IL-20R2-FCkh; soluble IL-22R1/IL-20R2 receptor heterodimer

What was measured:
IL22R1ddq/IL20R2-FCkh = molecular target: B2; experiment: SPR with the IL-22R1/IL-20R2-FCkh heterodimer
IL-20R1 triple mutant M3 = molecular target: T1, IL-20R1 triple mutant M3 (UniProt Q9UHF4 29-245); experiment: SPR, IL-20 + M3 co-injected over an IL-20R2 chip
T1 construct: range 29-245; also called IL-20R1 site 3 mutant
T1 sequence (looked up): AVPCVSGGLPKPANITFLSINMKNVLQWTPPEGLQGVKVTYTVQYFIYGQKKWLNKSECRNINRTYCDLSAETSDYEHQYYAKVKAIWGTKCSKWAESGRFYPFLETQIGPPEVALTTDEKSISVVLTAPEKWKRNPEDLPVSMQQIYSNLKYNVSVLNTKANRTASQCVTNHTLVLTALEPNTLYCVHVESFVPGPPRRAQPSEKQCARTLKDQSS
Protocol: FIGS. 9A-9D show the IL-20 site 3 interface is essential and distinct from other complexes. FIG. 9A is a ribbon diagram showing the site 3 interface between IL-20R1 and IL-20R2. FIG. 9B is a graph showing the importance of the site 3 interface in ternary complex formation. SPR sensograms obtained by injecting cytokines (IL-19 or IL-20, at 250 nM) and/or receptors (IL-20R1 or M3, at 425 nM), as labeled on the figure, over an IL-20R2 coupled biacore chip. Injection of IL-20+IL-20R1 results in a large response consistent with ternary complex formation. However, injection of IL-20+M3, an IL-20R1 site 3 mutant with S190^IL-20R1, W194^IL-20R1, and W207^IL-20R1 mutated to alanine drastically reduces binding due to disruption of ternary complex formation. Similar results are observed for complex formation by IL-19. FIG. 9C is a ribbon diagram of the superposition of the D2 domains of GHR site 1, IL-6R, and IL-20R1. The positions of the D2 domains of GHR site2, GP130, and IL-20R2 are shown, along with a schematic of the differences in their orientations. FIG. 9D is a ribbon diagram showing the putative model of the IL-22/IL-22R1/IL-10R2 complex based on the IL-20 ternary complex structure. […]

IL-19 = molecular target: T2, IL-19 (human, UniProt Q9UHD0 25-177); experiment: SPR, IL-19 as analyte over IL22R1ddq/IL20R2-FCkh as ligand
T2 construct: also called Interleukin-19; IL-19a
T2 sequence: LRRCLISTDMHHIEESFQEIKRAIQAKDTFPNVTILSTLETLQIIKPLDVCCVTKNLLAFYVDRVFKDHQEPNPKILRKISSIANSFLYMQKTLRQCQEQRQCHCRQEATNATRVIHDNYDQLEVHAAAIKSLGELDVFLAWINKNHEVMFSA

IL-20 = molecular target: B1; experiment: SPR, IL-20 as analyte over IL22R1ddq/IL20R2-FCkh as ligand
IL-22 = molecular target: T3, IL-22 (Homo sapiens (Human), UniProt Q9GZX6 35-179, limits assumed); experiment: SPR, IL-22 as analyte over IL22R1ddq/IL20R2-FCkh as ligand
T3 construct: also called IL-22 wt
T3 sequence: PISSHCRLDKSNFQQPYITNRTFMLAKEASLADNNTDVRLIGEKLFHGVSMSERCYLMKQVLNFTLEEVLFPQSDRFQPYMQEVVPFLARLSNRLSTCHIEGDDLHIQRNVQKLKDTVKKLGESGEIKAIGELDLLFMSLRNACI

Binder: B1
- fold difference in binding affinity against IL-19 (IL22R1ddq/IL20R2-FCkh): 100 fold
- binding result (IL-20R1 triple mutant M3): binds

Binder: B2
- Kd (IL-19): 101 nM
- Kd (IL-20): 0.99 nM
- Kd (IL-22): 5.15 nM
- kon (IL-22): ~957000 M⁻¹ s⁻¹
